# Where “and” joins values, the source holds several entries; their conditions need not be identical. Equal entries are not always repeated.
# Columns and labels:
# [1] = biological target: human PD-1 and human TIGIT both stably expressed on Jurkat cells (Jurkat/PD-1/TIGIT cells); test: flow cytometry, Jurkat/PD-1/TIGIT cells, 20 nM
# PD-1 (human) = PD-1 (human) (UniProt Q15116); test: cell-based or functional assay
# [2] = biological target: PD-1-Fc (recombinant PD-1-Fc fusion protein) (human) (UniProt Q15116); test: ForteBio Octet, PD-1-Fc on sensor
# PD-1-Fc (recombinant PD-1-Fc fusion protein) (human), sequence (Q15116 25-167 limits assumed): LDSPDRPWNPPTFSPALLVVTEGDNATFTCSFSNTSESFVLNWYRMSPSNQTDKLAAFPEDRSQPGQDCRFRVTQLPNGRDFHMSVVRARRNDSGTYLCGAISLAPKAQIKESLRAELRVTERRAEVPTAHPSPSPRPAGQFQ
# CD226 = biological target: T1, CD226 (UniProt Q15762); test: flow cytometry, cells expressing CD226
# T1 sequence (looked up): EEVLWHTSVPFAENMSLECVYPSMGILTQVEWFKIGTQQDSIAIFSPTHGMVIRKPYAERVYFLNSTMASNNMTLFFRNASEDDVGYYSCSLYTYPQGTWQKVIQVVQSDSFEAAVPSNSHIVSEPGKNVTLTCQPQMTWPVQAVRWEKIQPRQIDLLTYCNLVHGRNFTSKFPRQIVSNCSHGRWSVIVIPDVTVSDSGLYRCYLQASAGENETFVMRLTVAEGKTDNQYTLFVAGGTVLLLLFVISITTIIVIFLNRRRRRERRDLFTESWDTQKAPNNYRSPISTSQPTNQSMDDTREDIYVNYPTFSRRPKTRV
# rB7H6.Fc (human) = biological target: T2, rB7H6.Fc (human) (UniProt Q68D85); test: flow cytometry of yeast display strain stained with 16.6 nM rB7H6.Fc
# T2 sequence (looked up): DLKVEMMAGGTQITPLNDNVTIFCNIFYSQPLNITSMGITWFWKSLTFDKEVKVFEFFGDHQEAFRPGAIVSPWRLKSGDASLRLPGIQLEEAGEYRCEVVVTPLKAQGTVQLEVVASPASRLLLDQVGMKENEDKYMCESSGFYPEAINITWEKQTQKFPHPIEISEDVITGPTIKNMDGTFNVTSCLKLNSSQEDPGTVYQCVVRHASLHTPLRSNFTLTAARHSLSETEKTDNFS
# [3] = biological target: CD112R endogenously expressed on Jurkat/IL-2 reporter cells (Jurkat parental) (UniProt Q6DKI7); test: flow cytometry, Jurkat parental
# CD112R endogenously expressed on Jurkat/IL-2 reporter cells (Jurkat parental), sequence (Q6DKI7 whole entry): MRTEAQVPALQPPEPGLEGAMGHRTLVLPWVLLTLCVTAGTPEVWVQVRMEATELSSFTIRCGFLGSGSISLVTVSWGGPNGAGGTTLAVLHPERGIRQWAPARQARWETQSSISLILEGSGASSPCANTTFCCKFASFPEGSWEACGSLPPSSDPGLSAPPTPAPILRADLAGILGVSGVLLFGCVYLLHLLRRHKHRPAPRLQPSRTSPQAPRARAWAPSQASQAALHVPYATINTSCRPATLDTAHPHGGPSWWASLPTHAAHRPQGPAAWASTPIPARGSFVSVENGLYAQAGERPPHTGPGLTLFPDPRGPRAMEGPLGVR
# PD-1 (human), sequence (Q15116 25-288): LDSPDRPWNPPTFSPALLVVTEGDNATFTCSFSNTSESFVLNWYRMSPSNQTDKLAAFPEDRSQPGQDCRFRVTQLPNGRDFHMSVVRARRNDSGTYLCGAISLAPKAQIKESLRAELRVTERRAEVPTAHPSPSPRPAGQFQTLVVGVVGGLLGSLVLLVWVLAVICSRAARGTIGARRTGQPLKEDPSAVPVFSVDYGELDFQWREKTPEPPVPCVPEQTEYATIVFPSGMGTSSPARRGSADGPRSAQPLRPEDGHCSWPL
Substance,Average Relative Luminescence Units (PD-1 (human)),Fold increase in IL2 reporter signal (PD-1 (human)),other results
Fc Control (homodimer) (from UniProt P0DOX5 218-449),,,MFI at 20 nM [1]: 478 MFI
"variant PD-L1 IgV-Fc A33D, S75P (SEQ ID NO 287) (Fc fusion)",2040 RLU,0.92 fold,
"variant PD-L1 IgV-Fc I20L, I36T, N45D (SEQ ID NO 298) (Fc fusion)",2210 RLU,0.99 fold,
"variant PD-L1 IgV-Fc E40G, D43V, N45T, V50A (Fc fusion)",2220 RLU,0.99 fold,
"variant PD-L1 IgV-Fc I20L, E27G, N45T, V50A (Fc fusion)",1800 RLU,0.81 fold,
"variant PD-L1 IgV-Fc I20L, D43G, N45D, N78I (Fc fusion)",3470 RLU,1.56 fold,
"variant PD-L1 IgV-Fc A33D, N45T (Fc fusion)",2000 RLU,0.9 fold,
PD-L2 IgV-Fc variant H15Q (Fc fusion),,,Fortebio binding to PD-1-Fc Response Units (Response Units) [2]: 0.007
variant PD-L1 IgV-Fc N78L (Fc fusion),2240 RLU,1.01 fold,
"variant PD-L1 IgV-Fc A33D, D43G, N45D, V58A, S75P (Fc fusion)",2310 RLU,1.04 fold,
"variant PD-L1 IgV-Fc N45T, S75P (Fc fusion)",1960 RLU,0.88 fold,
"variant PD-L1 IgV-Fc K23R, N45T, N78I (Fc fusion)",2690 RLU,1.21 fold,
"variant PD-L1 IgV-Fc A33D, S75P, D85E (Fc fusion)",2220 RLU,0.99 fold,
"variant PD-L1 IgV-Fc D43G, N45D, L56Q, V58A, G101G-ins (G101GG) (Fc fusion)",3930 RLU,1.76 fold,
"variant PD-L1 IgV-Fc N45T, V50A (Fc fusion)",2080 RLU and 2200 RLU,0.93 fold and 0.99 fold,
"variant PD-L1 IgV-Fc E27G, N45T, V50A, N78I (Fc fusion)",1960 RLU,0.88 fold,

Substance,Average Relative Luminescence Units (PD-1 (human)),Fold increase in IL2 reporter signal (PD-1 (human)),other results
"variant PD-L1 IgV-Fc I20L, K28E, D43G, N45D, V58A, Q89R, G101G-ins (G101GG) (Fc fusion)",4290 RLU,1.93 fold,
"variant PD-L1 IgV-Fc I20L, N45T, N78I (Fc fusion)",2070 RLU,0.93 fold,
"variant PD-L1 IgV-Fc I20L, K23E, D43G, N45D, V50A, N78I (Fc fusion)",3590 RLU,1.61 fold,
"variant PD-L1 IgV-Fc V11E, I20L, I36T, N45D, H60R, S75P (Fc fusion)",2280 RLU,1.02 fold,
"PD-L2 IgV-Fc variant H15Q, S67L, R76G, I85F (Fc fusion)",,,Fortebio binding to PD-1-Fc Response Units (Response Units) [2]: 0.025
"variant CD155 IgV-Fc V9L, V11M, P18S, N35S, S54G, Q62K, L79P, L104M, T107M, V115M (Fc fusion)",,,MFI at 25 nM (CD226): 2320 MFI
"variant PD-L1 IgV-Fc I20L, K23E, D43G, N45D, V58A, N78I (Fc fusion)",3510 RLU,1.57 fold,
"variant PD-L1 IgV-Fc N45T, N78I (Fc fusion)",2180 RLU,0.98 fold,
parental NKp30 strain (yeast-displayed wild-type NKp30 IgC-like domain) (from UniProt O14931 19-134) (receptor),,,MFI (rB7H6.Fc (human)): 90 MFI
"variant PD-L1 IgV-Fc V11A, I20L, E27G, D43G, N45D, H51Y, S99G (Fc fusion)",3380 RLU,1.52 fold,
Wild-type CD155-ECD-Fc (from UniProt P15151 21-343) (Fc fusion),,,MFI at 20 nM [1]: 1200 MFI
non-stack variant PD-L1 IgV-Fc control (D43G/N45D/L56Q/V58A/G101G-ins (G101GG)) (Fc fusion),,,MFI at 20 nM [1]: 41400 MFI; MFI at 33.3nM [3]: 100 MFI
Full length ECD of PD-L1 (R&D Systems) (from UniProt Q9NZQ7 19-238) (Fc fusion),,,MFI at 20 nM [1]: 10400 MFI
"variant PD-L1 IgV-Fc I20L, I36T, N45D (SEQ ID NO 254) (Fc fusion)",2110 RLU,0.95 fold,
"variant PD-L1 IgV-Fc I20L, I36T, N45D, I47T (Fc fusion)",2250 RLU,1.01 fold,

# The next lines start with results.
Average Relative Luminescence Units (PD-1 (human)),Fold increase in IL2 reporter signal (PD-1 (human)),Substance,other results
1900 RLU,0.85 fold,"variant PD-L1 IgV-Fc N45T, V50A, N78I (Fc fusion)",
2110 RLU,0.95 fold,"variant PD-L1 IgV-Fc I20L, M41K, D43G, N45D (Fc fusion)",
4190 RLU,1.88 fold,"variant PD-L1 IgV-Fc I20L, D43G, N45D, V58A, N78I (Fc fusion)",
2060 RLU,0.92 fold,"variant PD-L1 IgV-Fc A33D, N78I (Fc fusion)",
2030 RLU,0.91 fold,"variant PD-L1 IgV-Fc E27G, N45T, K57R (Fc fusion)",
2050 RLU,0.92 fold,"variant PD-L1 IgV-Fc T19I, E27G, N45I, V50A, N78I, M97K (Fc fusion)",
2180 RLU,0.98 fold,"variant PD-L1 IgV-Fc I20L, N45T (Fc fusion)",
2190 RLU,0.98 fold,variant PD-L1 IgV-Fc N45T (Fc fusion),
2060 RLU,0.92 fold,"variant PD-L1 IgV-Fc A33D, N78S (Fc fusion)",
2150 RLU,0.97 fold,variant PD-L1 IgV-Fc M41K (Fc fusion),
4590 RLU,2.06 fold,"variant PD-L1 IgV-Fc I20L, E27G, D43G, N45D, V58A, N78I (Fc fusion)",
2030 RLU,0.91 fold,"variant PD-L1 IgV-Fc N45T, L74P, S75P (Fc fusion)",
2150 RLU,0.97 fold,"variant PD-L1 IgV-Fc Y14S, K28E, N45T (Fc fusion)",
2360 RLU,1.06 fold,"variant PD-L1 IgV-Fc K23R, D43G, N45D (Fc fusion)",
2010 RLU,0.9 fold,"variant PD-L1 IgV-Fc I20L, E27G, D43G, N45T, V50A (Fc fusion)",
2120 RLU,0.95 fold,"variant PD-L1 IgV-Fc M18I, M41K, D43G, H51R, N78I (Fc fusion)",
4380 RLU,1.97 fold,"variant PD-L1 IgV-Fc I20L, A33D, D43G, N45D, V58A, N78I (Fc fusion)",
2000 RLU,0.9 fold,"variant PD-L1 IgV-Fc I20L, D43G, N45D, V58A, N78I, D90G, G101D (Fc fusion)",
2160 RLU,0.97 fold,"variant PD-L1 IgV-Fc I20L, I36T, N45T, V50A (Fc fusion)",
1970 RLU,0.88 fold,"variant PD-L1 IgV-Fc E27G, N45T, M97I (Fc fusion)",
2140 RLU,0.96 fold,"variant PD-L1 IgV-Fc A33D, E53V (Fc fusion)",
2000 RLU,0.9 fold,"variant PD-L1 IgV-Fc E27G, N45T, V50A (Fc fusion)",
2350 RLU,1.05 fold,"variant PD-L1 IgV-Fc K28N, M41V, N45T, H51N, K57E (Fc fusion)",
2460 RLU,1.11 fold,"variant PD-L1 IgV-Fc D43G, N45D, V58A (Fc fusion)",
